Experiments:
[1] = biological target: Recombinant, his tagged full length human frataxin protein (Abcam ab95502) (human) (UniProt Q16595); assay: Simoa sandwich 3-step; capture Ab-2; frataxin 10000 pg/mL
[2] = biological target: Recombinant, his tagged full length human frataxin protein (Abcam ab95502) (human) (UniProt Q16595); assay: Simoa sandwich 3-step; capture Ab-3
[3] = biological target: Recombinant, his tagged full length human frataxin protein (Abcam ab95502) (human) (UniProt Q16595); assay: Simoa sandwich 3-step; capture Ab-2
[4] = biological target: Recombinant, his tagged full length human frataxin protein (Abcam ab95502) (human) (UniProt Q16595); assay: Simoa sandwich 3-step; capture Ab-4; frataxin 1000 pg/mL
[5] = biological target: Recombinant, his tagged full length human frataxin protein (Abcam ab95502) (human) (UniProt Q16595); assay: Simoa sandwich 3-step; capture Ab-5; frataxin 10000 pg/mL
[6] = biological target: Recombinant, his tagged full length human frataxin protein (Abcam ab95502) (human) (UniProt Q16595); assay: Simoa sandwich 3-step; capture Ab-4; frataxin 100 pg/mL
[7] = biological target: Recombinant, his tagged full length human frataxin protein (Abcam ab95502) (human) (UniProt Q16595); assay: Simoa sandwich 3-step; capture Ab-3; frataxin 1000 pg/mL
[8] = biological target: Recombinant, his tagged full length human frataxin protein (Abcam ab95502) (human) (UniProt Q16595); assay: Simoa sandwich 3-step; capture Ab-1; frataxin 100 pg/mL
[9] = biological target: Recombinant, his tagged full length human frataxin protein (Abcam ab95502) (human) (UniProt Q16595); assay: Simoa sandwich 3-step; capture Ab-5
[10] = biological target: Recombinant, his tagged full length human frataxin protein (Abcam ab95502) (human) (UniProt Q16595); assay: Simoa sandwich 3-step; capture Ab-1; frataxin 10000 pg/mL
[11] = biological target: Recombinant, his tagged full length human frataxin protein (Abcam ab95502) (human) (UniProt Q16595); assay: Simoa sandwich 3-step; capture Ab-2; frataxin 1000 pg/mL
[12] = biological target: Recombinant, his tagged full length human frataxin protein (Abcam ab95502) (human) (UniProt Q16595); assay: Simoa sandwich 3-step; capture Ab-5; frataxin 1000 pg/mL
[13] = biological target: Recombinant, his tagged full length human frataxin protein (Abcam ab95502) (human) (UniProt Q16595); assay: Simoa sandwich 3-step; capture Ab-2; frataxin 100 pg/mL
[14] = biological target: Recombinant, his tagged full length human frataxin protein (Abcam ab95502) (human) (UniProt Q16595); assay: Simoa sandwich 3-step; capture Ab-3; frataxin 100 pg/mL
[15] = biological target: Recombinant, his tagged full length human frataxin protein (Abcam ab95502) (human) (UniProt Q16595); assay: Simoa sandwich 3-step; capture Ab-5; frataxin 100 pg/mL
[16] = biological target: Recombinant, his tagged full length human frataxin protein (Abcam ab95502) (human) (UniProt Q16595); assay: Simoa sandwich 3-step; capture Ab-1; frataxin 1000 pg/mL
[17] = biological target: Recombinant, his tagged full length human frataxin protein (Abcam ab95502) (human) (UniProt Q16595); assay: Simoa sandwich 3-step; capture Ab-4
[18] = biological target: Recombinant, his tagged full length human frataxin protein (Abcam ab95502) (human) (UniProt Q16595); assay: Simoa sandwich 3-step; capture Ab-1
[19] = biological target: Recombinant, his tagged full length human frataxin protein (Abcam ab95502) (human) (UniProt Q16595); assay: Simoa sandwich 3-step; capture Ab-2; remark: listed apart in the source
[20] = biological target: Recombinant, his tagged full length human frataxin protein (Abcam ab95502) (human) (UniProt Q16595); assay: Simoa sandwich 2-step; capture Ab-1; frataxin 100 pg/mL
[21] = biological target: Recombinant, his tagged full length human frataxin protein (Abcam ab95502) (human) (UniProt Q16595); assay: Simoa sandwich 2-step; capture Ab-1; frataxin 1000 pg/mL
[22] = biological target: Recombinant, his tagged full length human frataxin protein (Abcam ab95502) (human) (UniProt Q16595); assay: Simoa sandwich 3-step; capture Ab-1; frataxin 10000 pg/mL; remark: listed apart in the source
[23] = biological target: Recombinant, his tagged full length human frataxin protein (Abcam ab95502) (human) (UniProt Q16595); assay: Simoa sandwich 2-step; capture Ab-2; frataxin 10000 pg/mL
[24] = biological target: Recombinant, his tagged full length human frataxin protein (Abcam ab95502) (human) (UniProt Q16595); assay: Simoa sandwich 3-step; capture Ab-4; frataxin 10000 pg/mL
[25] = biological target: Recombinant, his tagged full length human frataxin protein (Abcam ab95502) (human) (UniProt Q16595); assay: Simoa sandwich 2-step; capture Ab-2
[26] = biological target: Recombinant, his tagged full length human frataxin protein (Abcam ab95502) (human) (UniProt Q16595); assay: Simoa sandwich 3-step; capture Ab-1; frataxin 1000 pg/mL; remark: listed apart in the source
[27] = biological target: Recombinant, his tagged full length human frataxin protein (Abcam ab95502) (human) (UniProt Q16595); assay: Simoa sandwich 2-step; capture Ab-2; frataxin 100 pg/mL
[28] = biological target: Recombinant, his tagged full length human frataxin protein (Abcam ab95502) (human) (UniProt Q16595); assay: Simoa sandwich 3-step; capture Ab-2; frataxin 1000 pg/mL; remark: listed apart in the source
[29] = biological target: Recombinant, his tagged full length human frataxin protein (Abcam ab95502) (human) (UniProt Q16595); assay: Simoa sandwich 2-step; capture Ab-1; frataxin 10000 pg/mL
[30] = biological target: Recombinant, his tagged full length human frataxin protein (Abcam ab95502) (human) (UniProt Q16595); assay: Simoa sandwich 3-step; capture Ab-3; frataxin 10000 pg/mL
[31] = biological target: Recombinant, his tagged full length human frataxin protein (Abcam ab95502) (human) (UniProt Q16595); assay: Simoa sandwich 3-step; capture Ab-1; frataxin 100 pg/mL; remark: listed apart in the source
[32] = biological target: Recombinant, his tagged full length human frataxin protein (Abcam ab95502) (human) (UniProt Q16595); assay: Simoa sandwich 3-step; capture Ab-2; frataxin 10000 pg/mL; remark: listed apart in the source
[33] = biological target: Recombinant, his tagged full length human frataxin protein (Abcam ab95502) (human) (UniProt Q16595); assay: Simoa sandwich 2-step; capture Ab-1
[34] = biological target: Recombinant, his tagged full length human frataxin protein (Abcam ab95502) (human) (UniProt Q16595); assay: Simoa sandwich 3-step; capture Ab-1; remark: listed apart in the source
[35] = biological target: Recombinant, his tagged full length human frataxin protein (Abcam ab95502) (human) (UniProt Q16595); assay: Simoa sandwich 2-step; capture Ab-2; frataxin 1000 pg/mL
[36] = biological target: Recombinant, his tagged full length human frataxin protein (Abcam ab95502) (human) (UniProt Q16595); assay: Simoa sandwich 3-step; capture Ab-2; frataxin 100 pg/mL; remark: listed apart in the source

Chain of UniProt Q16595 (Q16595 42-210): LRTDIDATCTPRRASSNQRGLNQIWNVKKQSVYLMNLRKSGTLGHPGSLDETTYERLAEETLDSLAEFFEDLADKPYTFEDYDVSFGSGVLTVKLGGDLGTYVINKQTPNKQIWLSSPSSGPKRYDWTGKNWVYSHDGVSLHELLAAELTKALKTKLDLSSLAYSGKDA

Question: “Ab-1, unconjugated mouse monoclonal to human Frataxin (LSBio LS-C760752) (antibody)” was tested. Which Ave AEB [1] did it give?
Answer: 1.36 AEB

Question: What about the S/B [1] of the same substance?
Answer: 885

Question: What about the LOD [2] of the same substance?
Answer: 23.8 pg/mL

Question: And the LOD [3]?
Answer: 7.78 pg/mL

Question: And the Ave AEB [4]?
Answer: 12.4 AEB

Question: What about the S/B [4] of the same substance?
Answer: 3.63

Question: What about the Ave AEB [5] of the same substance?
Answer: 28.9 AEB

Question: What about the S/B [5] of the same substance?
Answer: 324

Question: What about the Ave AEB [6] of the same substance?
Answer: 4.72 AEB

Question: And the S/B [6]?
Answer: 1.37

Question: And the Ave AEB [7]?
Answer: 10.3 AEB

Question: What about the S/B [7] of the same substance?
Answer: 11

Question: And the Ave AEB [8]?
Answer: 0.007 AEB

Question: What about the LOD [9] of the same substance?
Answer: 4.85 pg/mL

Question: What about the Ave AEB [10] of the same substance?
Answer: 1.19 AEB

Question: What about the Ave AEB [11] of the same substance?
Answer: 0.0712 AEB

Question: And the S/B [11]?
Answer: 46.2

Question: What about the Ave AEB [12] of the same substance?
Answer: 8.56 AEB

Question: And the S/B [12]?
Answer: 95.9

Question: What about the Ave AEB [13] of the same substance?
Answer: 0.0069 AEB

Question: What about the S/B [13] of the same substance?
Answer: 4.45

Question: And the Ave AEB [14]?
Answer: 1.92 AEB

Question: And the S/B [14]?
Answer: 2.05

Question: What about the Ave AEB [15] of the same substance?
Answer: 0.834 AEB

Question: What about the S/B [15] of the same substance?
Answer: 9.35

Question: And the Ave AEB [16]?
Answer: 0.0953 AEB

Question: What about the LOD [17] of the same substance?
Answer: 66 pg/mL

Question: Which results are given for “Ab-2, unconjugated mouse monoclonal to Human Frataxin FXN (LSBio LS-C755462) (antibody)”?
Answer: Ave AEB [1]: 0.83 AEB; S/B [1]: 659; LOD [2]: 18 pg/mL; LOD [3]: 9.76 pg/mL; Ave AEB [4]: 13.6 AEB; S/B [4]: 3.71; Ave AEB [5]: 29.5 AEB; S/B [5]: 302; Ave AEB [6]: 4.73 AEB; S/B [6]: 1.29; Ave AEB [7]: 11.6 AEB; S/B [7]: 11.3; LOD [18]: 5.71 pg/mL; Ave AEB [8]: 0.0088 AEB; S/B [8]: 7.44; LOD [9]: 4.43 pg/mL; Ave AEB [10]: 1.05 AEB; S/B [10]: 892; Ave AEB [11]: 0.101 AEB; S/B [11]: 80.4; Ave AEB [12]: 9.35 AEB; S/B [12]: 95.7; Ave AEB [13]: 0.0068 AEB; S/B [13]: 5.41; Ave AEB [14]: 2.42 AEB; S/B [14]: 2.36; Ave AEB [15]: 0.961 AEB; S/B [15]: 9.84; Ave AEB [16]: 0.107 AEB; S/B [16]: 90.8; LOD [17]: 89.6 pg/mL

Question: What does the source list for “Ab-5, rabbit polyclonal to recombinant full-length Human Frataxin (Abcam ab175402) (antibody)”?
Answer: Ave AEB [1]: 5.41 AEB; S/B [1]: 343; LOD [19]: 4.9 pg/mL; Ave AEB [20]: 1.61 AEB; S/B [20]: 27.6; LOD [2]: 33.6 pg/mL; LOD [3]: 4.62 pg/mL; Ave AEB [4]: 3.95 AEB; S/B [4]: 7.32; Ave AEB [21]: 12.4 AEB; S/B [21]: 212; Ave AEB [5]: 21.7 AEB; S/B [5]: 220; Ave AEB [6]: 0.814 AEB; S/B [6]: 1.51; Ave AEB [22]: 8.37 AEB; S/B [22]: 346; Ave AEB [7]: 2.64 AEB; S/B [7]: 10.1; LOD [18]: 2.95 pg/mL; Ave AEB [23]: 28.4 AEB; S/B [23]: 497; Ave AEB [8]: 0.106 AEB; S/B [8]: 10.8; LOD [9]: 7.44 pg/mL; Ave AEB [24]: 23.7 AEB; S/B [24]: 44.1; LOD [25]: 1.88 pg/mL; Ave AEB [26]: 1.31 AEB; S/B [26]: 53.9; Ave AEB [10]: 5.93 AEB; S/B [10]: 602; Ave AEB [11]: 1.03 AEB; S/B [11]: 65; Ave AEB [27]: 1.49 AEB; S/B [27]: 26.1; Ave AEB [12]: 5.53 AEB; S/B [12]: 56.2; Ave AEB [13]: 0.115 AEB; S/B [13]: 7.3; Ave AEB [28]: 1.59 AEB; S/B [28]: 76.4; Ave AEB [14]: 0.469 AEB; S/B [14]: 1.8; Ave AEB [29]: 29.3 AEB; S/B [29]: 502; Ave AEB [15]: 0.573 AEB; S/B [15]: 5.82; Ave AEB [30]: 20.5 AEB; S/B [30]: 78.8; Ave AEB [31]: 0.152 AEB; S/B [31]: 6.28; Ave AEB [32]: 9.03 AEB; S/B [32]: 434; Ave AEB [16]: 0.998 AEB; S/B [16]: 101; LOD [17]: 52.8 pg/mL; LOD [33]: 1.27 pg/mL; LOD [34]: 5.12 pg/mL; Ave AEB [35]: 13.1 AEB; S/B [35]: 228; Ave AEB [36]: 0.16 AEB; S/B [36]: 7.69
